Source: publication PMC7385938 (Cell Stress & Chaperones, 2020)

B1: HSPA5-FL (full-length human HSPA5 without the leading signal peptide for ER translocation) (natural protein)
chain: not shown
B2: HSPA1-N (N-terminal end domain of HSPA1) (domain or fragment)
chain: not shown
B3: HSPA5-N (N-terminal end domain of HSPA5) (domain or fragment)
chain: not shown

Target: the molecule itself
Experiment: non-reducing LDS-PAGE of proteoliposomes

| Protein | binding result | stoichiometry N |
| --- | --- | --- |
| B1 | binds | – |
| B2 | binds | – |
| B3 | – | 2 |
